How the values were obtained:
N#CC(O)c1ccccc1 = test system: T1, N#CC(O)c1ccccc1; test: Measurement of kinetic parameters (Bertholet ammonia assay, purified enzyme); format: biochemical, Bradyrhizobium japonicum USDA110; conditions: other: purified nitrilase, potassium phosphate buffer pH 7.2, 30° C.
T1 construct: His tag (C); made in house; host or cells: E. coli Rosetta(DE3)pLysS (plasmid pLH10.3, pET22b)
Protocol: (§1) The standard assays were carried out by mixing the substrate nitrile and purified nitrilase enzyme in potassium phosphate buffer (100 mM, pH 7.2). The reaction mixture was incubated at 30° C. Samples (100 μL) of the reaction mixture were withdrawn at several time intervals and quenched with 10 μl of 1 M HCl. The amount of ammonia produced in the reaction was measured using Bertholet assay as follows: A 100 μL aliquot of each of the following assay reagents was added subsequently: 0.02 M NaOCl, 0.33 M sodium phenoxide and 0.01% sodium nitroprusside solution. The mixture was then heated at 95° C. for 2 min, cooled rapidly in ice-water bath, and 200 μl of the mixture was then placed in a 96-well plate to measure the absorbance at 640 nm using SpectraMax M2 microplate reader (Molecular Devices). The amount of ammonia released during the hydrolysis was calculated by comparison with the standard curve obtained with standard ammonium chloride solution, and the activity was defined as the number of μmol of ammonia produced in 1 minute by 1 mg of enzyme (μmol·min^−1·mg^−1). […], activity assays were performed with different substrate concentrations, and Vmax and Km were calculated by best fitting the curve to experimental data according to Michaelis equation.

N#CCc1ccccc1 = test system: T2, N#CCc1ccccc1; test: as above; format: biochemical, Bradyrhizobium japonicum USDA110; conditions: other: purified nitrilase, potassium phosphate buffer pH 7.2, 30° C.
T2 construct: His tag (C); made in house; host or cells: E. coli Rosetta(DE3)pLysS (plasmid pLH10.3, pET22b)
Protocol: as §1

“nitrilase bll6402 (Bradyrhizobium diazoefficiens USDA 110)” showed a Km (N#CC(O)c1ccccc1) of 260 µM, a Vmax (N#CC(O)c1ccccc1) of 44.7 U/mg and a kcat (N#CC(O)c1ccccc1) of 27.0 s⁻¹. It also gave a kcat/Km (N#CC(O)c1ccccc1) of 104000 M⁻¹ s⁻¹, a Km (N#CCc1ccccc1) of 100 µM and a Vmax (N#CCc1ccccc1) of 2.2 U/mg. The kcat (N#CCc1ccccc1) was 1.36 s⁻¹ and the kcat/Km (N#CCc1ccccc1) was 13600 s^−1M^−1.
